In patent publication US20150232576A1 (published 2015):

B1: endothelial nitric oxide synthase (eNOS), purified, unphosphorylated (enzyme, bovine, UniProt P29473 1-1205, looked up)
chain: MGNLKSVGQEPGPPCGLGLGLGLGLCGKQGPASPAPEPSRAPAPATPHAPDHSPAPNSPTLTRPPEGPKFPRVKNWELGSITYDTLCAQSQQDGPCTPRCCLGSLVLPRKLQTRPSPGPPPAEQLLSQARDFINQYYSSIKRSGSQAHEERLQEVEAEVASTGTYHLRESELVFGAKQAWRNAPRCVGRIQWGKLQVFDARDCSSAQEMFTYICNHIKYATNRGNLRSAITVFPQRAPGRGDFRIWNSQLVRYAGYRQQDGSVRGDPANVEITELCIQHGWTPGNGRFDVLPLLLQAPDEAPELFVLPPELVLEVPLEHPTLEWFAALGLRWYALPAVSNMLLEIGGLEFSAAPFSGWYMSTEIGTRNLCDPHRYNILEDVAVCMDLDTRTTSSLWKDKAAVEINLAVLHSFQLAKVTIVDHHAATVSFMKHLDNEQKARGGCPADWAWIVPPISGSLTPVFHQEMVNYILSPAFRYQPDPWKGSATKGAGITRKKTFKEVANAVKISASLMGTLMAKRVKATILYASETGRAQSYAQQLGRLFRKAFDPRVLCMDEYDVVSLEHEALVLVVTSTFGNGDPPENGESFAAALMEMSGPYNSSPRPEQHKSYKIRFNSVSCSDPLVSSWRRKRKESSNTDSAGALGTLRFCVFGLGSRAYPHFCAFARAVDTRLEELGGERLLQLGQGDELCGQEEAFRGWAKAAFQASCETFCVGEEAKAAAQDIFSPKRSWKRQRYRLSTQAEGLQLLPGLIHVHRRKMFQATVLSVENLQSSKSTRATILVRLDTAGQEGLQYQPGDHIGICPPNRPGLVEALLSRVEDPPPPTESVAVEQLEKGSPGGPPPSWVRDPRLPPCTLRQALTFFLDITSPPSPRLLRLLSTLAEEPSEQQELETLSQDPRRYEEWKWFRCPTLLEVLEQFPSVALPAPLLLTQLPLLQPRYYSVSSAPNAHPGEVHLTVAVLAYRTQDGLGPLHYGVCSTWLSQLKTGDPVPCFIRGAPSFRLPPDPYVPCILVGPGTGIAPFRGFWQERLHDIESKGLQPAPMTLVFGCRCSQLDHLYRDEVQDAQERGVFGRVLTAFSREPDSPKTYVQDILRTELAAEVHRVLCLERGHMFVCGDVTMATSVLQTVQRILATEGDMELDEAGDVIGVLRDQQRYHEDIFGLTLRTQEVTSRIRTQSFSLQERHLRGAVPWAFDPPGPDTPGP
notes: Expressed and purified 'as known in the art (22-24)'; also called unphosphorylated eNOS; purified eNOS
B2: ERK phosphorylated eNOS (enzyme)
chain: B1 chain
modifications: phosphorylated in vitro by ERK2 at S602, T46 and S58 (bovine eNOS numbering); apparent stoichiometry 2-3 phosphates per monomer

Tests used:
calmodulin (CaM) [1] = biological target: T1, calmodulin (CaM) (UniProt P0DP23 2-149); assay: optical biosensing (BLI, SPR), immobilised CaM
[2] = biological target: T2, ERK-2 (extracellular signal-regulated kinase 2) (UniProt P28482 1-360, limits assumed, biotinylated for immobilisation on streptavidin sensors); assay: BLI, immobilised ERK-2, single component fit
T2 construct: Bought protein; also called ERK1/2
T2 sequence (P28482 whole entry): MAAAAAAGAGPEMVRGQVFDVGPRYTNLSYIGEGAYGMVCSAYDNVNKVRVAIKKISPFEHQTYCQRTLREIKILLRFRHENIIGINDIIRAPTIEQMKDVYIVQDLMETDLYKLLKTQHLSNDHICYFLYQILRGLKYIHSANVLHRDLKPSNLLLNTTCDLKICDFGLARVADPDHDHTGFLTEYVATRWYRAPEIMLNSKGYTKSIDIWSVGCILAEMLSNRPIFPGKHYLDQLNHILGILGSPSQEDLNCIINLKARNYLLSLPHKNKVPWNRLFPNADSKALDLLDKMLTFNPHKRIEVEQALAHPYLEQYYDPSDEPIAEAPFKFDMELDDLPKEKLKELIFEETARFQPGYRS
Method: NOSs were expressed and purified as known in the art (22-24). Heme and flavin content were estimated spectrophotometrically, and activity assayed by following NADPH consumption at 340 nm (23, 24). eNOS NO synthase activity and cytochrome c reduction were assayed as known in the art (25, 26), the concentration of CaM was reduced to 0.6 μM because of potential competition between CaM and p38. Phosphorylated His-p38 was expressed as known in the art (26) and was purified using Talon™ resin as directed by the manufacturer. ERK-2 was purchased from PROSPEC (NJ). Biolayer interferometry (27) measurements were made on a ForteBio (Menlo Park Calif.) Octet QK biosensor using streptavidin sensors. Assays were performed in 200 μL volumes at 25° C. p38 and ERK were biotinylated as known in the art (21). Biotinylated kinases were loaded onto sensors for 600 s. After establishing baseline response, kinases were exposed to analyte eNOS or nNOS at a range of concentrations. Baseline, association, and dissociation phases were all performed in NOS buffer (10 mM phosphate, pH 7.5, 100 mM NaCl, 10% glycerol, 0.005% surfactant P-20, 10 uM CaCl₂). Association and dissociation were monitored as nm shift. Nonspecific binding of analytes to sensors without ligand was negligible and so was not subtracted.
The concentration dependence was similar to that of the binding of eNOS to p38. […]

calmodulin (CaM) [3] = biological target: T1, calmodulin (CaM); assay: BLI, biotinylated CaM on streptavidin sensors, eNOS analyte, global single-state model
calmodulin (CaM) [4] = biological target: T1, calmodulin (CaM); assay: SPR (Biacore X100, CAPture chip), immobilised CaM, single-cycle kinetics, sequential model
calmodulin (CaM) [5] = biological target: T1, calmodulin (CaM); assay: BLI, immobilised CaM, single-state model

Binder	Kd (calmodulin (CaM) [1])	fold of apparent Kd against that measured for p38 [2]	Kd (calmodulin (CaM) [3])	koff (calmodulin (CaM) [3])	kon (calmodulin (CaM) [3])	Kd (calmodulin (CaM) [4])	fold higher koff than unphosphorylated eNOS (calmodulin (CaM) [5])
B1	~1 nM	~2 fold	0.92 nM	0.00011 s⁻¹	120000 M⁻¹ s⁻¹	0.72 nM	
B2	~1 nM		2.7 nM	0.00012 s⁻¹	120000 M⁻¹ s⁻¹	0.65 nM	3 fold
